The values below come from patent US20210380703A1 (RIGEL PHARMACEUTICALS, published 2021).

B1: 369_C05 (antibody, V domains shown)
VH: EVQLLESGGGLVQPGGSLRLSCAASGFTFDSYSMNWVRQAPGKGLEWVAGINYNGGYTSYADSVKGRFTISRDNSKNTLYLQMNSLRAEDTAVYYCARGANWHDTALDYWGQGTLVTVSS
VL: DIQMTQSPSSLSASVGDRVTITCRASQSISSYVNWYQQKPGKAPKLVIYATTSRHSGVPSRFSGSGSGTDFTLTISSLQPEDFATYYCQQSYNSPLTFGGGTKVEIK
notes: Group III
B2: 369_D09 (antibody, V domains shown)
VH: B1 VH with D30S, S31D, S33G, A49S, G50N
VL: B1 VL with S30L, S31T, V33L, V47L, T51A, H55A, N93D
notes: Group III
B3: 371_A10 (antibody, V domains shown)
VH: B1 VH with S31D, A49S, T58K, S59G
VL: B1 VL with S30V, V33L, T51A, H55A, N93E, S94N
notes: Group III
B4: 369_E06 (antibody, V domains shown)
VH: B1 VH with D30S, S33G, A49S
VL: B1 VL with S30I, V33L, T51A, N93D
notes: Group III
B5: 370_D01 (antibody, V domains shown)
VH: B1 VH with D30S, A49S, G50S, S59G
VL: B1 VL with S30L, V33L, V47L, T51A, S94T
notes: Group III
B6: 369_D03 (antibody, V domains shown)
VH: B1 VH with D30S, A49S, A106H
VL: B1 VL with S30L, S31T, V33L, T51A, H55A, N93E, S94N
notes: Group III
B7: 370_B11 (antibody, V domains shown)
VH: B1 VH with A49S, G55S, A106H
VL: B1 VL with S30L, V33L, T51A, S91G, N93D, S94L
notes: Group III
B8: 369_D07 (antibody, V domains shown)
VH: B1 VH with D30S, S33G, A49S, T58K, A106H
VL: B1 VL with S30V, V33L, T51A, H55A, N93D, S94L
notes: Group III
B9: 370_H02 (antibody, V domains shown)
VH: B1 VH with A49S, G55S, A106H
VL: B1 VL with S30L, S31T, V33L, V47L, T51A, H55A, N93E
notes: Group III
B10: 370_B03 (antibody, V domains shown)
VH: B1 VH with D30S, G50N, S59G
VL: B1 VL with S30L, V33L, T51A, H55A, S94N
notes: Group III
B11: 371_B04 (antibody, V domains shown)
VH: B1 VH with D30S, A49S, T58K
VL: B1 VL with S30L, V33L, T51V, N93D
notes: Group III
B12: 371_B03 (antibody, V domains shown)
VH: B1 VH with D30S, S33G, N35H, G50S, A106H
VL: B1 VL with S30L, V47L, H55A, N93D, S94N
notes: Group III
B13: 370_H07 (antibody, V domains shown)
VH: B1 VH with D30S, T58K
VL: B1 VL with S30L, V33L, V47L, T51A, R54L, H55A, Y92D, N93S
notes: Group III
B14: 371_C04 (antibody, V domains shown)
VH: B1 VH with S33G, A49S, G55S, T58K, S59G
VL: B1 VL with S30L, V33L, V47L, T51A, H55A, N93S, S94T
notes: Group III
B15: 370_A02 (antibody, V domains shown)
VH: B1 VH with S33G, S59G
VL: B1 VL with S30V, S31T, V33L, T51A, H55A, N93D
notes: Group III
B16: 370_F03 (antibody, V domains shown)
VH: B1 VH with D30S, S33G, A49S, G50S, G55S, T58K
VL: B1 VL with S30L, V47L, T51A, H55A, N93E, S94N
notes: Group III
B17: 371_C01 (antibody, V domains shown)
VH: B1 VH with D30S, S33G, N35H, A49S, G50S, S59G, A106H
VL: B1 VL with S30V, V33L, V47L, T51A, N93D, S94N
notes: Group III
B18: 371_B12 (antibody, V domains shown)
VH: B1 VH with D30S, S31D, G55S
VL: B1 VL with S30V, S31T, V33L, T51A, S94N
notes: Group III
B19: 371_B09 (antibody, V domains shown)
VH: B1 VH with D30S, G55S, S59G, A106H
VL: B1 VL with S30L, R54L, H55A, N93D, S94T
notes: Group III
B20: 371_C05 (antibody, V domains shown)
VH: B1 VH with D30S, S31D, S33G, N35H, G50N, S59G
VL: B1 VL with S30L, V33L, V47L, T51A, H55A, N93D
notes: Group III
B21: 370_D05 (antibody, V domains shown)
VH: B1 VH with S31D, A49S, G50N, T58K, S59G
VL: B1 VL with S30I, S31T, V33L, T51A, N93D, S94T
notes: Group III
B22: 370_B12 (antibody, V domains shown)
VH: B1 VH with D30S, S31D, A49S, T58K, S59G
VL: B1 VL with S30L, H55A, N93E, S94T
notes: Group III
B23: 369_G08 (antibody, V domains shown)
VH: B1 VH with A49S, G50S, T58K, S59G, A106H
VL: not shown
notes: Group III

Positions count from the first letter of the chain named.
Note: test concentration or dose not given here.

T2 sequence (P27037 20-135 limits assumed): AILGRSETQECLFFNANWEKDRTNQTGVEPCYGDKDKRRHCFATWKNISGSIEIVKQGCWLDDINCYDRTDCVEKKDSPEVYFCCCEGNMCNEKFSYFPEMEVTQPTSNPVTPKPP
T1 sequence (P27038 20-135 limits assumed): as the sequence (P27037 20-135 limits assumed) above, with K20R, V73I counted along it

The first test concerns the target T1, mouse ACVR2A (mouse, UniProt P27038 20-135, limits assumed).
T1 construct: coated antigen of the initial ELISA
Description: ELISA. In a few lines:
(§1)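 Binding signal was read by ELISA after ACVR2A-specific monoclonal antibodies were tested against human ACVR2A and mouse ACVR2A, with human Fc as the negative control.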
On to B1, for which the optical density was 2.72 OD.
B2 registered an optical density of 3.05 OD.
Take B3: the optical density amounted to 2.78 OD.
In turn, B4 came in with an optical density of 3.11 OD.
On the same count and under the same terms, in the case of B5 it was 3.17 OD; in that of B6, 3.55 OD.
Molecule B7 displayed an optical density of 2.45 OD.
In the case of B8, the optical density is 2.91 OD.
B9: the optical density came to 3.39 OD.
As for B10, the optical density is 3.57 OD.
B11 had an optical density of 3.13 OD.
As for B12, the optical density stood at 1.94 OD.
Molecule B13 had an optical density of 3.25 OD.
Same read-out and setting: in the case of B14 it was 2.25 OD.
On the same count and under the same terms, in the case of B15 it was 2.91 OD; in that of B16, 1.25 OD; in that of B17, 2.27 OD.
The molecule B18 gave an optical density of 2.4 OD.
With B19, the optical density worked out at 0.827 OD.
With B20, the optical density came to 1.35 OD.
For B21, the optical density worked out at 3.12 OD.
Molecule B22 returned an optical density of 3.08 OD.
For the molecule B23, the optical density turned out to be 3.49 OD.

A further test has as its target T2, human ACVR2A (human, UniProt P27037 20-135, limits assumed).
T2 construct: coated antigen of the initial ELISA; also called activin receptor, type II A
Description: ELISA. In a few lines: as §1
For the molecule B1, the optical density turned out to be 2.54 OD.
B2: the optical density was determined as 3.3 OD.
The same measure, in the same setting: then B3, with 2.81 OD; and B4, with 3.13 OD.
B5 had an optical density of 3.14 OD.
B6 displayed an optical density of 3.28 OD.
Molecule B7 had an optical density of 2.08 OD.
On the same count and under the same terms, then B8, with 3.07 OD.
On to B9, for which the optical density worked out at 3.3 OD.
B10 returned an optical density of 3.71 OD.
Molecule B11 yielded an optical density of 2.46 OD.
On to B12, for which the optical density is 1.63 OD.
Molecule B13 displayed an optical density of 3 OD.
On to B14, for which the optical density is 2.05 OD.
B15 yielded an optical density of 2.9 OD.
As to B16, the optical density was found to be 1.14 OD.
On the same count and under the same terms, then B17, with 2 OD.
B18 gave an optical density of 2.56 OD.
Same read-out and setting: then B19, with 0.825 OD; and B20, with 1.24 OD.
As for B21, the optical density was 2.98 OD.
Still for that read-out and setting: then B22, with 2.92 OD.
On to B23, for which the optical density is 3.3 OD.

In the next test the target is T3, biotinylated goat anti-human kappa light chain.
T3 construct: positive control of the ELISA
Description: ELISA, positive control. In a few lines:
as §1
Background: In an ELISA, binding on a coated surface is turned into a signal by an enzyme label.
For B1, the optical density turned out to be 3.02 OD.
Still for that read-out and setting: in the case of B2 it was 3.45 OD.
In the case of B3, the optical density worked out at 3.48 OD.
B4 gave an optical density of 3.52 OD.
The same measure, in the same setting: then B5, with 3.66 OD; and B6, with 3.61 OD.
In turn, B7 came in with an optical density of 3.69 OD.
The same measure, in the same setting: in the case of B8 it was 3.26 OD; in that of B9, 3.67 OD; in that of B10, 3.61 OD.
On the same count and under the same terms, then B11, with 2.27 OD; and B12, with 3.48 OD.
On to B13, for which the optical density is 3.51 OD.
For the molecule B14, the optical density came to 3.45 OD.
The same measure, in the same setting: then B15, with 3.62 OD.
Take B16: the optical density was determined as 3.3 OD.
On to B17, for which the optical density amounted to 3.59 OD.
In the case of B18, the optical density is 3.48 OD.
The same measure, in the same setting: then B19, with 2.7 OD.
B20 had an optical density of 3.08 OD.
On to B21, for which the optical density was determined as 3.49 OD.
The molecule B22 had an optical density of 3.56 OD.
With B23, the optical density came out at 3.58 OD.
